Source: publication PMC3741231

Key:
[1] = target: PCSK9 Δ33-58-V5 (lacking the acidic N-terminal region of the prosegment) (human) (UniProt Q8NBP7)
[2] = target: PCSK9 D374Y-V5 (gain-of-function natural mutant) (human) (UniProt Q8NBP7)
[3] = target: human wild type PCSK9-V5 (prosegment≡PCSK9 complex) in conditioned medium (human) (UniProt Q8NBP7)
[4] = target: PCSK9 Δ33-58 D374Y-V5 (human) (UniProt Q8NBP7)
[5] = target: human wild type PCSK9-V5 (prosegment≡PCSK9 complex) in conditioned medium (human) (UniProt Q8NBP7); remark: listed apart in the source
[6] = target: human wild type PCSK9-V5 (prosegment≡PCSK9 complex) in conditioned medium (human) (UniProt Q8NBP7); remark: listed apart in the source

fold increase of total LDLR on co-expression of Fcpro with PCSK9 Δ33-58 in HepG2/shPCSK9 cells [1] | total LDLR level (normalised to β-actin) in HepG2/shPCSK9 cells co-expressing Fcpro and PCSK9 D374Y, against 0.1 with D374Y alone (relative LDLR level) [2] | fold increase of total LDLR on co-expression of Fcpro with wild type PCSK9 in HepG2/shPCSK9 cells [3] | total LDLR level (normalised to β-actin) in HepG2/shPCSK9 cells co-expressing Fcpro and PCSK9 Δ33-58 D374Y, against 0.08 with Δ33-58 D374Y alone (relative LDLR level) [4] | reversal by co-expressed Fcpro (DNA ratio PCSK9:Fcpro 1:3; ratios up to 1:9 gave no more) of the ∼44% LDLR degradation induced by PCSK9; total LDLR by Western blot of cell lysates [5] | reduction by Fcpro (3 µg/ml, pre-incubated with 1 µg/ml PCSK9, both in HEK293 conditioned media) of the LDLR degradation induced by extracellular PCSK9 in HepG2/shPCSK9 cells, 4 h at 37°C [6] | Substance
1.4 fold | 0.44 | 1.4 fold | 0.31 | 75% | – | Fcpro expressed in HepG2/shPCSK9 cells (from UniProt Q8NBP7 31-152) (Fc fusion)
– | – | – | – | – | 60% | Fcpro (Fc of human IgG1, hinge of human IgG1 and PCSK9 prosegment aa 31-152) (from UniProt Q8NBP7 31-152) (Fc fusion)
